From the supplement of paper PMC9170038

System: MS2 coat protein
Experiment: apparent KD of MS2 coat protein; designed switch direction (-1 OFF switch, 1 ON switch): -1; higher = weaker reporter binding
How it was run: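 Designed RNA switches sharing common flanks were transcribed on Illumina chips by stalled E. coli RNA polymerase. They were titrated with SNAP-549-labelled MS2 coat protein, from 0.7 or 1.5 nM doubling to 3 µM, in Tris-HCl pH 7.5 buffer with KCl, MgCl2, BSA, DTT, tRNA and Tween-20. Titrations ran without input, with 200 uM small-molecule ligand, or with an oligonucleotide input. The apparent KD of each design is the median over its clusters, after curve-fitting of normalised cluster fluorescence.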

[1] = input ligand: microRNA oligo, concentration not stated
[2] = Eterna round: R95, input ligand: microRNA oligo, concentration not stated
[3] = Eterna round: R95, input ligand: FMN 200 uM
[4] = Eterna round: R95, input ligand: none

In the case of “UUCGUGCUGCUUUGCUGUACGAGUACAUGAGGAUCACCCAUGUAGGAUAUGGUUCGCUUUGCGUGCUAGAAGGAUAUGUGUUGC [salish99_ExNG3_r04_507] (Eterna round: R96, puzzle: Exclusion NG 3)”, the “apparent KD of MS2 coat protein” value (input ligand: FMN 200 uM) is reported as 26.2 nM, the “apparent KD of MS2 coat protein” value [1] is reported as 17.8 nM and the “apparent KD of MS2 coat protein” value (input ligand: none) is reported as 26 nM.
In the case of “AUACCACGAGGAUAUCGUCUAUAAUACAUGAGGAUCACCCAUGUUAUAUCUGUAAUGUUUCGAGAAGGCGUUUGUU [JR_E5_Sub085] (puzzle: Exclusion 5)”, the “apparent KD of MS2 coat protein” value [2] is reported as 21.3 nM.
With “GCAGCAAAAUUCCAUAAAACCACAUGAGGAUCACCCAUGUCUCAGGAUAUGGUCUGGAUUACAGGCCAGAAGGGAGAAAGCUGC [Eli exng3 - 058] (Eterna round: R96, puzzle: Exclusion NG 3)” the “apparent KD of MS2 coat protein” value (input ligand: FMN 200 uM) was 14.6 nM, the “apparent KD of MS2 coat protein” value [1] was 12.6 nM and the “apparent KD of MS2 coat protein” value (input ligand: none) was 13.9 nM.
“UUUAAUUUUUUUUUUUUACAAGCUUUUUGCUCGUCUUAUACAUGAGGAUCACCCAUGUGAAUGGAGGGUAAAUUAUC [JMF 84] (puzzle: Sensor v3, turn-off variant 2)” was tested, and the “apparent KD of MS2 coat protein” value [3] was 19.4 nM, the “apparent KD of MS2 coat protein” value [2] was 42.5 nM and the “apparent KD of MS2 coat protein” value [4] was 16.8 nM.
In the case of “GUAUGUGCGAGAGGAUAUCGUGUACAAAGUACACGAGAAGGCUUCACAUGAGGAUCACCCAUGUACCGAGGUGAAACACCUUGA [Omei Exc(NG)1 Bv8] (Eterna round: R96, puzzle: Exclusion NG 1)”, the “apparent KD of MS2 coat protein” value (input ligand: FMN 200 uM) is reported as 934 nM, the “apparent KD of MS2 coat protein” value [1] is reported as 173 nM and the “apparent KD of MS2 coat protein” value (input ligand: none) is reported as 270 nM.
“AGGGAGUAAGGAUAUCGGAAAGGACACGAAAGUGACAAAGACGAGAAGGUACAUGAGGAUCACCCAUGUAAAAA [milkweed 24] (Eterna round: R96, puzzle: Exclusion 4)” was tested, and the “apparent KD of MS2 coat protein” value [1] was 18.2 nM.
For “AAGGAUAGAGGAUAUGCAUAGAUACAGAUUCAUGUAGAACUACAUGAGGAUCACCCAUGUAGAAGGCUAUCCUA [Fiskers Ex 2 - 5] (puzzle: Exclusion 2)”, the “apparent KD of MS2 coat protein” value [2] was 17.3 nM.
With “UUAUACGCUGAGGAUAUCUUCACUGAGAGGUGAAGAGAAGGCGGUACAUGAGGAUCACCCAUGUCUAUGGGCAG [Ex-6 Malc#20] (puzzle: Exclusion 6)” the “apparent KD of MS2 coat protein” value [3] was 376 nM, the “apparent KD of MS2 coat protein” value [2] was 312 nM and the “apparent KD of MS2 coat protein” value [4] was 479 nM.
With “CGUGCGUAUGUGAGGAUAUGCUGGUCCUUGGAUCGGCAGAAGGCACAUGAGGAUCACCCAUGUGGUGUCGUACU [salish99_Bmod_ex4_081] (puzzle: Brourd's mod of Exclusion 4)” the “apparent KD of MS2 coat protein” value [2] was 216 nM.
“ACAUGUUGUCCAUGAUAUUACAUGAGGAUCACCCAUGUUAUUGUGAUUUUGAUGUGUAAGUUUGUUGCUCGUCUUAU [JR_STOV1_Sub063] (Eterna round: R97, puzzle: Sensor, turn-off variant 1)” was tested, and the “apparent KD of MS2 coat protein” value (input ligand: FMN 200 uM) was 29.8 nM and the “apparent KD of MS2 coat protein” value (input ligand: none) was 29.4 nM.
“ACAGCUAUAGGAUAUACAGCGAGGAAACUUAGUGGGAUCGGACAUGAGGAUCACCCAUGUAGAAGGAUAGACGG [Eternabot (L2) Solution 85] (Eterna round: R97, puzzle: Exclusion 2)” was tested, and the “apparent KD of MS2 coat protein” value (input ligand: FMN 200 uM) was 149 nM and the “apparent KD of MS2 coat protein” value (input ligand: none) was 97.6 nM.
In the case of “UGUUUAUAUGAAGGAUAUACUUAACAUGAGGAUCACCCAUGUGGUGUUGUGAGUGAGUGAGUUUAGUAGAAGGUCAAUUCUUUU [JMF's solution 97] (Eterna round: R96, puzzle: Exclusion NG 2)”, the “apparent KD of MS2 coat protein” value (input ligand: FMN 200 uM) is reported as 996 nM, the “apparent KD of MS2 coat protein” value [1] is reported as 553 nM and the “apparent KD of MS2 coat protein” value (input ligand: none) is reported as 425 nM.
“GCUUCUGGGCAAGGAUAUCCUGCGCUGUUCUGGUUCGUGUCUGUCACAUGAGGAUCACCCAUGUGGGAGAAGGUGCCUGUGGCG [Design 67] (Eterna round: R96, puzzle: Exclusion NG 2)” was tested, and the “apparent KD of MS2 coat protein” value (input ligand: FMN 200 uM) was 20.9 nM, the “apparent KD of MS2 coat protein” value [1] was 17 nM and the “apparent KD of MS2 coat protein” value (input ligand: none) was 24.8 nM.
With “GUAGAGUGAGGAUAUACGAGAUCGAUAGAUCGGCGAUCCAAACAUGAGGAUCACCCAUGUAGAAGGCACUCUAC [Mat - Exclusion 2 - Eli Mod - D6] (Eterna round: R97, puzzle: Exclusion 2)” the “apparent KD of MS2 coat protein” value (input ligand: FMN 200 uM) was 455 nM and the “apparent KD of MS2 coat protein” value (input ligand: none) was 90.4 nM.
With “GAGGCAUGCUGAGGUCCACACAUGAGGAUCACCCAUGUAAUGACAAGCUUUUUACUCAUCUUAUCGCUAUCGCGUUC [Tiinarre] (puzzle: Sensor v3, turn-off variant 1)” the “apparent KD of MS2 coat protein” value [3] was 19.1 nM, the “apparent KD of MS2 coat protein” value [2] was 66.6 nM and the “apparent KD of MS2 coat protein” value [4] was 16.3 nM.
For “AACUACUCUGUGAGGAUAUGCGAUCGUUGAUCAAAGCAGAAGGCACAUGAGGAUCACCCAUGUUCCUACGAGGG [Edatbiat] (puzzle: Brourd's mod of Exclusion 4)”, the “apparent KD of MS2 coat protein” value [2] was 30.2 nM.
In the case of “CUCGGGAGUCAGGAUAUCGGCACUUAUCAAUCACGAGAAGGGACGACAUGAGGAUCACCCAUGUGGGAAAAGAA [Ersoar] (puzzle: Exclusion 6)”, the “apparent KD of MS2 coat protein” value [3] is reported as 252 nM, the “apparent KD of MS2 coat protein” value [2] is reported as 89.4 nM and the “apparent KD of MS2 coat protein” value [4] is reported as 84.7 nM.
“CGUACUGAAGUGAGGAUAUUGUCUCGGAUACGAAACAAGAAGGCACAUGAGGAUCACCCAUGUAGACAGUACGA [Malc #30 mod 2] (puzzle: Brourd's mod of Exclusion 4)” was tested, and the “apparent KD of MS2 coat protein” value [3] was 15.1 nM, the “apparent KD of MS2 coat protein” value [2] was 17.3 nM and the “apparent KD of MS2 coat protein” value [4] was 15.7 nM.
With “CCUAGACAUGAGGAUCACCCAUGUGAGGAUAUGAUGCGAUCGUCGAAAGACGAUAGCAUCAGAAGGCACAUAUG [Fiskers Ex 1 - 5] (puzzle: Exclusion 1)” the “apparent KD of MS2 coat protein” value [2] was 36.9 nM.
For “UUGACGUCGUCAGGAUAUAGUUUUAAUGUCAUGCGUAUGUUCUUACAUGAGGAUCACCCAUGUCGCUAGAAGGGACUAAAGAUU [JR_ExcNG2_Sub011] (Eterna round: R96, puzzle: Exclusion NG 2)”, the “apparent KD of MS2 coat protein” value (input ligand: FMN 200 uM) was 27.6 nM, the “apparent KD of MS2 coat protein” value [1] was 23.5 nM and the “apparent KD of MS2 coat protein” value (input ligand: none) was 34.7 nM.
In the case of “UACCUGAGGCUUUGCUUUAGGCUUACAUGAGGAUCACCCAUGUAGGAUAUGGUAGGCUUUGCUUACCAGAAGGACAUGGAAAUU [Mat - Exclusion NG 3 - Mod of JL - D20] (Eterna round: R96, puzzle: Exclusion NG 3)”, the “apparent KD of MS2 coat protein” value (input ligand: FMN 200 uM) is reported as 349 nM, the “apparent KD of MS2 coat protein” value [1] is reported as 63 nM and the “apparent KD of MS2 coat protein” value (input ligand: none) is reported as 70.7 nM.
“GGAUAAAACCGAGGAUAUACGUAUCACUAACGAGUAGAAGGCGGACAUGAGGAUCACCCAUGUGAGUUCUCAAUAAGAAACACG [Prohibition 64 - Jieux - Exclusion NG 1] (Eterna round: R96, puzzle: Exclusion NG 1)” was tested, and the “apparent KD of MS2 coat protein” value (input ligand: FMN 200 uM) was 519 nM, the “apparent KD of MS2 coat protein” value [1] was 85.1 nM and the “apparent KD of MS2 coat protein” value (input ligand: none) was 174 nM.
For “UUUGUUUAUGUAGGAUAUGCCUGGCGUGCCUUUGCAGAAGGACAUGAGGAUCACCCAUGUAACAUGAGGCUCACCCAUGUCGCC [salish99_ExNG1_r04_113] (Eterna round: R96, puzzle: Exclusion NG 1)”, the “apparent KD of MS2 coat protein” value (input ligand: FMN 200 uM) was 134 nM, the “apparent KD of MS2 coat protein” value [1] was 91.6 nM and the “apparent KD of MS2 coat protein” value (input ligand: none) was 165 nM.
“AGUUAUGUAGGAUAUGCACGUGACAACUUGAGGAUCACCCAAGUGAUUGCAGGCUGGGCGGCAGAAGGGCAGUUGU [Diedbi] (Eterna round: R97, puzzle: Exclusion 5)” was tested, and the “apparent KD of MS2 coat protein” value (input ligand: FMN 200 uM) was 153 nM and the “apparent KD of MS2 coat protein” value (input ligand: none) was 104 nM.
For “GAUGGACAUGAGGAUCACCCAUGUAAGGAUAUUGUUUGUGGCUAGUUUUGGUUACGGGCGAGAAGGUACUCGUC [-19.7, -16.7 kcal, A 23%] (Eterna round: R97, puzzle: Exclusion 1)”, the “apparent KD of MS2 coat protein” value (input ligand: FMN 200 uM) was 39.7 nM and the “apparent KD of MS2 coat protein” value (input ligand: none) was 47.7 nM.
